Positions count from the first letter of the chain named. Names may count otherwise.

The data set “SEC” deals with the molecule itself. In words: SEC. (SEC sorts molecules by how far they enter the pores of the column.)
The data set “AUC” concerns the molecule itself. Briefly: AUC.
The data set “NMR titration” deals with the molecule itself. In words: NMR titration.
The target of another data set is Ubiquitin (UniProt P0CG48 1-76). Briefly: NMR titration.

B1: UBQLN2 450–624 P506A (domain or fragment)
chain: RAMQALMQIQQGLQTLATEAPGLIPSFTPGVGVGVLGTAIGPVGPVTPIGPIGPIVAFTPIGPIGPIGPTGPAAPPGSTGSGGPTGPTVSSAAPSETTSPTSESGPNQQFIQQMVQALAGANAPQLPNPEVRFQQQLEQLNAMGFLNREANLQALIATGGDINAAIERLLGSQPSW
On to B1, for which the binding result in the data set “SEC” is “binds”.

B2: UBQLN2 450–624 T487I (domain or fragment)
chain: B1 chain with T38I, A57P
In the case of B2, the binding result in “AUC” was “binds”.

B3: UBQLN2 450–624 P509S (domain or fragment)
chain: B1 chain with A57P, P60S
As to B3, the binding result in “NMR titration” is listed as “binds”.

B4: UBQLN2 450–624 P500S (domain or fragment)
chain: B1 chain with P51S, A57P
With B4, the binding result in “NMR titration” was “binds”.

B5: UBQLN2 450–624 P506S (domain or fragment)
chain: B1 chain with A57S
For B5, the binding result in the data set “SEC” was “binds”.

B6: UBQLN2 450–624 (domain or fragment)
chain: B1 chain with A57P
In the case of B6, the binding result with Ubiquitin is recorded as “binds”.

B7: UBQLN2 450–624 P497H (domain or fragment)
chain: B1 chain with P48H, A57P
Take B7: the binding result in the data set “SEC” is “binds”.

B8: UBQLN2 450–624 A488T (domain or fragment)
chain: B1 chain with A39T, A57P
Regarding B8, the binding result in the data set “SEC” is on record as “binds”.

B9: UBQLN2 450–624 P497L (domain or fragment)
chain: B1 chain with P48L, A57P
As to B9, in the data set “AUC”, the binding result is listed as “binds”.

B10: UBQLN2 450–624 P506T (domain or fragment)
chain: B1 chain with A57T
Consider B10, for which the binding result in “SEC” is “binds”.

B11: UBQLN2 450–624 P497S (domain or fragment)
chain: B1 chain with P48S, A57P
For B11, the binding result in “AUC” is given as “binds”.

The values above are taken from publication PMC6551275 (Structure (London, England : 1993), 2019).
